Results on four molecules are retold here after US7799901B2, “Modulators of the function of FAS receptors and other proteins” (Yeda Research and Development Co. Ltd., priority 1995, dated 2010).

One series deals with T1, MACHα1 (Homo sapiens, UniProt Q14790).
T1 construct: expressed in transfected cells; host or cells: SFY526 yeast
The series is described as follows: Two-hybrid β-galactosidase filter assay (FIG. 5), binding to MACHα1. The following applies: two hybrid test. The procedure:
In FIG. 5, there is shown the results of the interaction of MORT-1 and MACH within transfected yeast cells. Briefly, MORT-1 and MACHβ1 and their deletion constructs, as well as MACHα1, a MACHα1 mutant in which the catalytic cysteine Cys360 is replaced by Ser (MACHα1 (C360S)) and the intracellular domain of human FAS-R (Fas-IC), were expressed within transfected SFY526 yeast in Gal4 DNA binding domain and activation domain constructs (pGBT9 and pGAD-GH). Their interaction was assessed by a β-galactosidase expression filter assay as described in Boldin et al (1995b). The results are presented in terms of the time required for the development of strong color. […] None of the inserts examined interacted with a number of tested negative controls, including the intracellular domains of human p55 TNF receptor, p75 TNF receptor and CD40, and lamin, cyclin D and ‘empty’ Gal4 vectors. MACHβ1 was cloned by two hybrid screening of a Gal4 AD-tagged human B cell library (Durfee et al, 1993) for proteins that bind to MORT-1, using the HF7c Yeast reporter strain. Except where otherwise indicated, all experimental procedures for the findings presented are as described above (see also Boldin et al, 1995). […] MACHβ1 also self-associated in the transfected yeast. […] Expression of MACHβ1 molecules in mammalian cells yielded a 34 kDa protein that bound to MORT-1 molecules co-expressed with it. […]

The subject of a further series is yeasts. The series is described as follows: Cytotoxic effect on transfected yeasts (yield of colonies). The format is cell-based, yeast. The following applies: decrease in the yield of colonies; activation domain vector. From the text:
To find out if MACHα1 can bind to MORT1, as does MACHβ1, the interaction of the proteins within transfected yeasts was first examined. […] This effect was manifested in a marked decrease in the yield of colonies in yeasts that expressed the protein in the activation domain (AD) vector (whose expression level is higher than that of the DNA binding domain (DBD) vector). On the other hand, […] in which the catalytic cysteine residue, Cys360, was replaced with Ser (MACHα1 (C360S)) was not cytotoxic to either mammalian cells (see below), or yeast. Like MACHβ1, MACHα1 (C360S) bound in tranfected yeast to MORT-1 and also to itself. It also bound to MACHβ1. […] The intensity of the lacZ-product color varied, however, among the yeast colonies; in yeasts tranfected with MACHα1 in both the AD and the DBD vectors no color product was observed, probably because of the cytotoxic effect of the wild-type MACHα1.

Another series has as its target T2, MACH B (Homo sapiens, UniProt Q14790).
T2 construct: a construct encoding only the ORF-B (MACH B) region; expressed in transfected cells; host or cells: SFY526 yeast
The series is described as follows: Two-hybrid β-galactosidase expression filter assay in SFY526 yeast, DNA-binding domain hybrid MACH B. The following applies: DNA-binding domain hybrid MACH B (ORF-B region). From the text: To isolate proteins interacting with the intracellular domain of the FAS-R, the yeast two-hybrid system was used (Fields and Song, 1989). […] In this system, the genes for the candidate interacting proteins are cloned into separate expression vectors. In one expression vector, the sequence of the one candidate protein is cloned in phase with the sequence of the GAL4 DNA-binding domain to generate a hybrid protein with the GAL4 DNA-binding-domain, and in the other vector, the sequence of the second candidate protein is cloned in phase with the sequence of the GAL4 activation domain to generate a hybrid protein with the GAL4-activation domain. The two hybrid vectors are then co-transformed into a yeast host strain having a lacZ or HIS3 reporter gene under the control of upstream GAL4 binding sites. […]
The yeast two-hybrid test was further applied to evaluate the specificity of binding of MACH to MORT-1, in particular, to define the region in MORT-1 to which MACH binds, as well as to determine which of the MACH ORFs interacts with MORT-1, the procedures being as set forth herein above in Examples 1 and 2. Briefly, various MORT-1 and MACH constructs were prepared for testing the interaction of the proteins encoded by the Gal4 DNA-binding domain and activation domain constructs within transfected SFY526 yeast cells as assessed by the β-galactosidase expression filter assay. […]

T1 sequence (Q14790 217-479): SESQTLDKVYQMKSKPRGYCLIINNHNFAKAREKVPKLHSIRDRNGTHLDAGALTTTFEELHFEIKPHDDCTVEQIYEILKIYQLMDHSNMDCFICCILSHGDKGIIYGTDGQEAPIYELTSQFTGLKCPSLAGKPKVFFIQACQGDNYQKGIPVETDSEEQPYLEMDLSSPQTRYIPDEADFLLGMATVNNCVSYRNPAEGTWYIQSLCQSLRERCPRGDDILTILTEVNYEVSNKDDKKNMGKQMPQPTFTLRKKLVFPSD

Turning to “MACHα1: MACH isoform, cDNA SEQ ID NO: 14, amino acid SEQ ID NO: 7; contains CED3/ICE homology region”, the “binding to MACHα1 in transfected yeast (self-interaction)” value in the series with MACHα1 is on record as “did not exhibit self-interaction”. The “cytotoxic effect on yeasts” value in the series with yeasts is recorded as “significant cytotoxic effect”.

B1: MORT-1: Mediator of Receptor-induced Toxicity; protein binding the intracellular domain of FAS-R, SEQ ID NO:2 (protein)
chain: VNQAPECRFGGGILGPLGKRRDLARASEPRTEGARRAGPQPRPLADPAMDPFLVLLHSVSSSLSSSELTELKFLCLGRVVKRKLERVQSGLDLFSMLLEQNDLEPGHTELLRELLASLRRHDLLRRVDDFEAGAAAGAAPGEEDLCAAFNVICDNVGKDWRRLARQLKVSDTKIDSIEDRYPRNLTERVRESLRIWKNTEKENATVAHLVGALRSCQMNLVADLVQEVQQARDLQNRSGAMSPMSWNSDASTSEAS
As to B1, the “development of color (interaction with DNA-binding domain hybrid)” value with MACH B was “+ (“+++” and “+” indicate the development of a strong color within 30 and 90 min. of the assay, respectively)”.

B2: MACHβ1: MACH isoform, cDNA SEQ ID NO: 4, amino acid SEQ ID NO: 5; lacks the CED3/ICE homology region (protein)
chain: MDFSRNLYDIGEQLDSEDLASLKFLSLDYIPQRKQEPIKDALMLFQRLQEKRMLEESNLSFLKELLFRINRLDLLITYLNTRKEEMERELQTPGRAQISAYRVMLYQISEEVSRSELRSFKFLLQEEISKCKLDDDMNLLDIFIEMEKRVILGEGKLDILKRVCAQINKSLLKIINDYEEFSKERSSSLEGSPDEFSNDFGQSLPNEKQTSGILSDHQQSQFCKSTGESAQTSQH
For B2, the “development of color (interaction with DNA-binding domain hybrid)” value with MACH B is “+ (“+++” and “+” indicate the development of a strong color within 30 and 90 min. of the assay, respectively)”.

B3: MACHα1 (C360S): MACHα1 mutant in which the catalytic cysteine Cys360 is replaced by Ser (protein)
chain: MDFSRNLYDIGEQLDSEDLASLKFLSLDYIPQRKQEPIKDALMLFQRLQEKRMLEESNLSFLKELLFRINRLDLLITYLNTRKEEMERELQTPGRAQISAYRVMLYQISEEVSRSELRSFKFLLQEEISKCKLDDDMNLLDIFIEMEKRVILGEGKLDILKRVCAQINKSLLKIINDYEEFSKERSSSLEGSPDEFSNGEELCGVMTISDSPREQDSESQTLDKVYQMKSKPRGYCLIINNHNFAKAREKVPKLHSIRDRNGTHLDAGALTTTFEELHFEIKPHDDCTVEQIYEILKIYQLMDHSNMDCFICCILSHGDKGIIYGTDGQEAPIYELTSQFTGLKCPSLAGKPKVFFIQASQGDNYQKGIPVETDSEEQPYLEMDLSSPQTRYIPDEADFLLGMATVNNCVSYRNPAEGTWYIQSLCQSLRERCPRGDDILTILTEVNYEVSNKDDKKNMGKQMPQPTFTLRKKLVFPSD
In the case of B3, the “cytotoxic effect on yeasts” value with yeasts is recorded as “not cytotoxic”.
